Our source for the stoichiometry N values is PMC9722636.

This assay has as its target recombinant HAstV MLB1 capsid spike domain (residues 399-653 of the HAstV MLB1 capsid protein) (Human astrovirus MLB1). The assay can be described thus: SEC.

Regarding “recombinant HAstV MLB1 capsid spike domain (residues 399-653 of the HAstV MLB1 capsid protein) (domain or fragment)”, the stoichiometry N amounted to 2.
